B1: SARS-CoV-2 nsp14 (enzyme)
chain: AENVTGLFKDCSKVITGLHPTQAPTHLSVDTKFKTEGLCVDIPGIPKDMTYRRLISMMGFKMNYQVNGYPNMFITREEAIRHVRAWIGFDVEGCHATREAVGTNLPLQLGFSTGVNLVAVPTGYVDTPNNTDFSRVSAKPPPGDQFKHLIPLMYKGLPWNVVRIKIVQMLSDTLKNLSDRVVFVLWAHGFELTSMKYFVKIGPERTCCLCDRRATCFSTASDTYACWHHSIGFDYVYNPFMIDVQQWGFTGNLQSNHDLYCQVHGNAHVASCDAIMTRCLAVHECFVKRVDWTIEYPIIGDELKINAACRKVQHMVVKAALLADKFPVLHDIGNPKAIKCVPQADVEWKFYDAQPCSDKAYKIEELFYSYATHSDKFTDGVCLFWNCNVDRYPANSIVCRFDTRVLSNLNLPGCDGGSLYVNKHAFHTPAFDKSAFVNLKQLPFFYYSDSPCESHGKQVVSDIDYVPLKSATCITRCNLGGAVCRHHANEYRLYLDAYNMMISAGFSLWVYKQFDTYNLWNTFTRLQ
B2: nsp9-nsp10 fusion protein (other)
chain: NNELSPVALRQMSCAAGTTQTACTDDNALAYYNTTKGGRFVLALLSDLQDLKWARFPKSDGTGTIYTELEPPCRFVTDTPKGPKVKYLYFIKGLNNLNRGMVLGSLAATVRLQAGNATEVPANSTVLSFCAFAVDAAKAYKDYLASGGQPITNCVKMLCTHTGTGQAITVTPEANMDQESFGGASCCLYCRCHIDHPNPKGFCDLKGKYVQIPTTCANDPVGFTLKNTVCTVCGMWKGYGCSCDQLREPMLQ
B3: template-primer RNA (dsRNA)
RNA 1: CAUGCCAUGGCCUCUAAAAUGUCAGCUGCUCCCUAGCAUGCUACUACCGCGUAGCAUG
RNA 2: GCGGUAGUAGCAUGCUAGGGAGCAG

Legend:
SARS-CoV-2 nsp12 = SARS-CoV-2 nsp12 (SARS-CoV-2, UniProt P0DTD1); assay: cryo-EM structure
SARS-CoV-2 nsp13 = SARS-CoV-2 nsp13 (SARS-CoV-2, UniProt P0DTD1 5325-5925); assay: cryo-EM structure
SARS-CoV-2 nsp14 = biological target: B1; assay: SEC
nsp12 (RdRp with …) = biological target: nsp12 (RdRp with NiRAN);nsp7;nsp8;nsp9;nsp13 helicase;nsp10;nsp14 (ExoN / N7-MTase) (SARS-CoV-2;SARS-CoV-2;SARS-CoV-2;SARS-Co …, UniProt P0DTD1;P0DTD1;P0DTD1;P0DTD1;P0DTD1;P0DTD1;P0DTD1 …, ||||||); assay: cryo-EM structure

Binder	binding result (SARS-CoV-2 nsp12)	binding result (SARS-CoV-2 nsp13)	binding result (SARS-CoV-2 nsp14)	binding result (nsp12 (RdRp with …))
B1	binds	binds		
B2	binds		binds	
B3				binds
